We go through ten substances from article PMC11945409.

Several values for one entry are separate records, joined by “and”; a condition that tells them apart may be missing. Identical values can stand only once.

Test [1] addresses adaptor protein gp45 of siphophage T1 (phage T1 (ATCC 11303-B1)). Kind of test: cryo-EM structure; head-connector complex of purified mature T1 virions; asymmetric reconstruction 8 Å; local reconstruction of the portal-adaptor complex 3.6 Å (twelvefold symmetry) and of the stopper-terminator-tube complex 3.6 Å (sixfold symmetry).
For test [2], the target named is cement protein (CP) gp49 of siphophage T1 (phage T1 (ATCC 11303-B1)). The experiment in a line: cryo-EM structure; icosahedral head of purified mature T1 virions (assembled in infected E. coli) in phage buffer (50 mM NaCl, 10 mM MgCl2, 10 mM Tris-HCl, pH 7.6); icosahedral reconstruction 4 Å, local reconstruction of the fivefold region 3.5 Å.
In test [3] the target is cement protein (CP) gp48 of siphophage T1 (phage T1 (ATCC 11303-B1)). Described as above.
In test [4] the target is central fiber protein gp33 of siphophage T1 (phage T1 (ATCC 11303-B1)). The experiment in a line: cryo-EM structure; tail tip of purified mature T1 virions (laboratory-adapted, no lateral fibers); 6.1 Å, after local refinement 4.3 Å, threefold symmetry imposed.
Test [5] has as its target distal tail protein gp37 of siphophage T1 (phage T1 (ATCC 11303-B1)). The description is as above.
The target in test [6] is insertion protein gp34 of siphophage T1 (phage T1 (ATCC 11303-B1)). The description is as above.
Test [7] concerns the target major capsid protein (MCP) gp47 of siphophage T1 (phage T1 (ATCC 11303-B1)). Kind of test: cryo-EM structure; icosahedral head of purified mature T1 virions (assembled in infected E. coli) in phage buffer (50 mM NaCl, 10 mM MgCl2, 10 mM Tris-HCl, pH 7.6); icosahedral reconstruction 4 Å, local reconstruction of the fivefold region 3.5 Å.
For test [8], the target named is portal protein gp52 of siphophage T1 (phage T1 (ATCC 11303-B1)). The experiment in a line: cryo-EM structure; head-connector complex of purified mature T1 virions; asymmetric reconstruction 8 Å; local reconstruction of the portal-adaptor complex 3.6 Å (twelvefold symmetry) and of the stopper-terminator-tube complex 3.6 Å (sixfold symmetry).
Test [9] has as its target stopper protein gp44 of siphophage T1 (phage T1 (ATCC 11303-B1)). The test is described as above.
For test [10], the target named is tail terminator protein gp42 of siphophage T1 (phage T1 (ATCC 11303-B1)). The test is described as above.
Test [11] deals with tail tube protein (TTP) gp41 of siphophage T1 (phage T1 (ATCC 11303-B1)). The experiment in a line: cryo-EM structure; tail tube of purified mature T1 virions; 4.1 Å, sixfold symmetry imposed.

The term stoichiometry N denotes a count of units in the complex or per binding partner.

For “adaptor protein gp45 of siphophage T1 (natural protein)”, the stoichiometry N in [1] turned out to be 12. Take “cement protein (CP) gp49 of siphophage T1 (natural protein)”: in test [2], the stoichiometry N is 3. This substance also gave a stoichiometry N (gp49 per gp48) in test [3] of 2.

For “central fiber protein gp33 of siphophage T1 (natural protein)”, the stoichiometry N in test [4] was determined as 3. Take “distal tail protein gp37 of siphophage T1 (natural protein)”: the stoichiometry N in test [5] amounted to 6. “insertion protein gp34 of siphophage T1 (natural protein)” showed a stoichiometry N in test [6] of 3.

Consider “major capsid protein (MCP) gp47 of siphophage T1 (natural protein)”, for which, in [7], the stoichiometry N was 5 and 6; the stoichiometry N (copies in the head) is 415. On to “portal protein gp52 of siphophage T1 (natural protein)”, for which the stoichiometry N in [8] amounted to 12. For the substance “stopper protein gp44 of siphophage T1 (natural protein)”, the stoichiometry N in test [9] came to 6. Turning to “tail terminator protein gp42 of siphophage T1 (natural protein)”, the stoichiometry N in test [10] came out at 6. For “tail tube protein (TTP) gp41 of siphophage T1 (natural protein)”, in test [11], the stoichiometry N turned out to be 6.
